Patent publication US20240058467A1 (SUTRO BIOPHARMA, published 2024)

B1: Conjugate 30: D04-Y180F404/K42/E161-LP14 (antibody, human IgG1, kappa)
heavy: MEVQLVESGGGLVQPGGSLRLSCAASGFNISDYDIHWVRQAPGKGLEWVGGIDPADGSTDYADSVKGRFTISADTSKNTAYLQMNSLRAEDTAVYYCARDYGVYDYWGQGTLVTVSSASTKGPSVFPLAPSSKSTSGGTAALGCLVKDYFPEPVTVSWNSGALTSGVHTFPAVLQSSGLSLSSVVTVPSSSLGTQTYICNVNHKPSNTKVDKKVEPKSCDKTHTCPPCPAPELLGGPSVFLFPPKPKDTLMISRTPEVTCVVVDVSHEDPEVKFNWYVDGVEVHNAKTKPREEQYNSTYRVVSVLTVLHQDWLNGKEYKCKVSNKALPAPIEKTISKAKGQPREPQVYTLPPSREEMTKNQVSLTCLVKGFYPSDIAVEWESNGQPENNYKTTPPVLDSDGSFLYSKLTVDKSRWQQGNVFSCSVMHEALHNHYTQKSLSLSPGK
light: MDIQMTQSPSSLSASVGDRVTITCRASQDVNTAVAWYQQKPGAPKLLIYSASFLYSGVPSRFSGSRSGTDFTLTISSLQPEDFATYYCQQHYTTPPTFGQGTKVEIKRTVAAPSVFIFPPSDEQLKSGTASVVCLLNNFYPREAKVQWKVDNALQSGNSQSVTEQDSKDSTYSLSSTLTLSKADYEKHKVYACEVTHQGLSSPVTKSFNRGEC
modifications: pAMF at K42 and E161 (printed * in the sequence), linked to LP14; pAMF at Y180 and F404 (printed * in the sequence), linked to LP14
B2: Conjugate 34: D04-Y180F404/K42/E161-LP18 (antibody, human IgG1, kappa)
heavy: MEVQLVESGGGLVQPGGSLRLSCAASGFNISDYDIHWVRQAPGKGLEWVGGIDPADGSTDYADSVKGRFTISADTSKNTAYLQMNSLRAEDTAVYYCARDYGVYDYWGQGTLVTVSSASTKGPSVFPLAPSSKSTSGGTAALGCLVKDYFPEPVTVSWNSGALTSGVHTFPAVLQSSGLSLSSVVTVPSSSLGTQTYICNVNHKPSNTKVDKKVEPKSCDKTHTCPPCPAPELLGGPSVFLFPPKPKDTLMISRTPEVTCVVVDVSHEDPEVKFNWYVDGVEVHNAKTKPREEQYNSTYRVVSVLTVLHQDWLNGKEYKCKVSNKALPAPIEKTISKAKGQPREPQVYTLPPSREEMTKNQVSLTCLVKGFYPSDIAVEWESNGQPENNYKTTPPVLDSDGSFLYSKLTVDKSRWQQGNVFSCSVMHEALHNHYTQKSLSLSPGK
light: MDIQMTQSPSSLSASVGDRVTITCRASQDVNTAVAWYQQKPGAPKLLIYSASFLYSGVPSRFSGSRSGTDFTLTISSLQPEDFATYYCQQHYTTPPTFGQGTKVEIKRTVAAPSVFIFPPSDEQLKSGTASVVCLLNNFYPREAKVQWKVDNALQSGNSQSVTEQDSKDSTYSLSSTLTLSKADYEKHKVYACEVTHQGLSSPVTKSFNRGEC
modifications: pAMF at K42 and E161 (printed * in the sequence), linked to LP18; pAMF at Y180 and F404 (printed * in the sequence), linked to LP18
B3: Conjugate 31: D04-Y180F404/K42/E161-LP15 (antibody, human IgG1, kappa)
heavy: MEVQLVESGGGLVQPGGSLRLSCAASGFNISDYDIHWVRQAPGKGLEWVGGIDPADGSTDYADSVKGRFTISADTSKNTAYLQMNSLRAEDTAVYYCARDYGVYDYWGQGTLVTVSSASTKGPSVFPLAPSSKSTSGGTAALGCLVKDYFPEPVTVSWNSGALTSGVHTFPAVLQSSGLSLSSVVTVPSSSLGTQTYICNVNHKPSNTKVDKKVEPKSCDKTHTCPPCPAPELLGGPSVFLFPPKPKDTLMISRTPEVTCVVVDVSHEDPEVKFNWYVDGVEVHNAKTKPREEQYNSTYRVVSVLTVLHQDWLNGKEYKCKVSNKALPAPIEKTISKAKGQPREPQVYTLPPSREEMTKNQVSLTCLVKGFYPSDIAVEWESNGQPENNYKTTPPVLDSDGSFLYSKLTVDKSRWQQGNVFSCSVMHEALHNHYTQKSLSLSPGK
light: MDIQMTQSPSSLSASVGDRVTITCRASQDVNTAVAWYQQKPGAPKLLIYSASFLYSGVPSRFSGSRSGTDFTLTISSLQPEDFATYYCQQHYTTPPTFGQGTKVEIKRTVAAPSVFIFPPSDEQLKSGTASVVCLLNNFYPREAKVQWKVDNALQSGNSQSVTEQDSKDSTYSLSSTLTLSKADYEKHKVYACEVTHQGLSSPVTKSFNRGEC
modifications: pAMF at K42 and E161 (printed * in the sequence), linked to LP15; pAMF at Y180 and F404 (printed * in the sequence), linked to LP15
B4: Conjugate 35: D04-Y180F404/K42/E161-LP19 (antibody, human IgG1, kappa)
heavy: MEVQLVESGGGLVQPGGSLRLSCAASGFNISDYDIHWVRQAPGKGLEWVGGIDPADGSTDYADSVKGRFTISADTSKNTAYLQMNSLRAEDTAVYYCARDYGVYDYWGQGTLVTVSSASTKGPSVFPLAPSSKSTSGGTAALGCLVKDYFPEPVTVSWNSGALTSGVHTFPAVLQSSGLSLSSVVTVPSSSLGTQTYICNVNHKPSNTKVDKKVEPKSCDKTHTCPPCPAPELLGGPSVFLFPPKPKDTLMISRTPEVTCVVVDVSHEDPEVKFNWYVDGVEVHNAKTKPREEQYNSTYRVVSVLTVLHQDWLNGKEYKCKVSNKALPAPIEKTISKAKGQPREPQVYTLPPSREEMTKNQVSLTCLVKGFYPSDIAVEWESNGQPENNYKTTPPVLDSDGSFLYSKLTVDKSRWQQGNVFSCSVMHEALHNHYTQKSLSLSPGK
light: MDIQMTQSPSSLSASVGDRVTITCRASQDVNTAVAWYQQKPGAPKLLIYSASFLYSGVPSRFSGSRSGTDFTLTISSLQPEDFATYYCQQHYTTPPTFGQGTKVEIKRTVAAPSVFIFPPSDEQLKSGTASVVCLLNNFYPREAKVQWKVDNALQSGNSQSVTEQDSKDSTYSLSSTLTLSKADYEKHKVYACEVTHQGLSSPVTKSFNRGEC
modifications: pAMF at K42 and E161 (printed * in the sequence), linked to LP19; pAMF at Y180 and F404 (printed * in the sequence), linked to LP19
B5: Conjugate 36: D04-Y180F404/K42/E161-LP20 (antibody, human IgG1, kappa)
heavy: MEVQLVESGGGLVQPGGSLRLSCAASGFNISDYDIHWVRQAPGKGLEWVGGIDPADGSTDYADSVKGRFTISADTSKNTAYLQMNSLRAEDTAVYYCARDYGVYDYWGQGTLVTVSSASTKGPSVFPLAPSSKSTSGGTAALGCLVKDYFPEPVTVSWNSGALTSGVHTFPAVLQSSGLSLSSVVTVPSSSLGTQTYICNVNHKPSNTKVDKKVEPKSCDKTHTCPPCPAPELLGGPSVFLFPPKPKDTLMISRTPEVTCVVVDVSHEDPEVKFNWYVDGVEVHNAKTKPREEQYNSTYRVVSVLTVLHQDWLNGKEYKCKVSNKALPAPIEKTISKAKGQPREPQVYTLPPSREEMTKNQVSLTCLVKGFYPSDIAVEWESNGQPENNYKTTPPVLDSDGSFLYSKLTVDKSRWQQGNVFSCSVMHEALHNHYTQKSLSLSPGK
light: MDIQMTQSPSSLSASVGDRVTITCRASQDVNTAVAWYQQKPGAPKLLIYSASFLYSGVPSRFSGSRSGTDFTLTISSLQPEDFATYYCQQHYTTPPTFGQGTKVEIKRTVAAPSVFIFPPSDEQLKSGTASVVCLLNNFYPREAKVQWKVDNALQSGNSQSVTEQDSKDSTYSLSSTLTLSKADYEKHKVYACEVTHQGLSSPVTKSFNRGEC
modifications: pAMF at K42 and E161 (printed * in the sequence), linked to LP20; pAMF at Y180 and F404 (printed * in the sequence), linked to LP20
B6: Conjugate 33: D04-Y180F404/K42/E161-LP17 (antibody, human IgG1, kappa)
heavy: MEVQLVESGGGLVQPGGSLRLSCAASGFNISDYDIHWVRQAPGKGLEWVGGIDPADGSTDYADSVKGRFTISADTSKNTAYLQMNSLRAEDTAVYYCARDYGVYDYWGQGTLVTVSSASTKGPSVFPLAPSSKSTSGGTAALGCLVKDYFPEPVTVSWNSGALTSGVHTFPAVLQSSGLSLSSVVTVPSSSLGTQTYICNVNHKPSNTKVDKKVEPKSCDKTHTCPPCPAPELLGGPSVFLFPPKPKDTLMISRTPEVTCVVVDVSHEDPEVKFNWYVDGVEVHNAKTKPREEQYNSTYRVVSVLTVLHQDWLNGKEYKCKVSNKALPAPIEKTISKAKGQPREPQVYTLPPSREEMTKNQVSLTCLVKGFYPSDIAVEWESNGQPENNYKTTPPVLDSDGSFLYSKLTVDKSRWQQGNVFSCSVMHEALHNHYTQKSLSLSPGK
light: MDIQMTQSPSSLSASVGDRVTITCRASQDVNTAVAWYQQKPGAPKLLIYSASFLYSGVPSRFSGSRSGTDFTLTISSLQPEDFATYYCQQHYTTPPTFGQGTKVEIKRTVAAPSVFIFPPSDEQLKSGTASVVCLLNNFYPREAKVQWKVDNALQSGNSQSVTEQDSKDSTYSLSSTLTLSKADYEKHKVYACEVTHQGLSSPVTKSFNRGEC
modifications: pAMF at K42 and E161 (printed * in the sequence), linked to LP17; pAMF at Y180 and F404 (printed * in the sequence), linked to LP17
B7: Conjugate 38: D04-Y180F404/K42/E161-LP23 (antibody, human IgG1, kappa)
heavy: MEVQLVESGGGLVQPGGSLRLSCAASGFNISDYDIHWVRQAPGKGLEWVGGIDPADGSTDYADSVKGRFTISADTSKNTAYLQMNSLRAEDTAVYYCARDYGVYDYWGQGTLVTVSSASTKGPSVFPLAPSSKSTSGGTAALGCLVKDYFPEPVTVSWNSGALTSGVHTFPAVLQSSGLSLSSVVTVPSSSLGTQTYICNVNHKPSNTKVDKKVEPKSCDKTHTCPPCPAPELLGGPSVFLFPPKPKDTLMISRTPEVTCVVVDVSHEDPEVKFNWYVDGVEVHNAKTKPREEQYNSTYRVVSVLTVLHQDWLNGKEYKCKVSNKALPAPIEKTISKAKGQPREPQVYTLPPSREEMTKNQVSLTCLVKGFYPSDIAVEWESNGQPENNYKTTPPVLDSDGSFLYSKLTVDKSRWQQGNVFSCSVMHEALHNHYTQKSLSLSPGK
light: MDIQMTQSPSSLSASVGDRVTITCRASQDVNTAVAWYQQKPGAPKLLIYSASFLYSGVPSRFSGSRSGTDFTLTISSLQPEDFATYYCQQHYTTPPTFGQGTKVEIKRTVAAPSVFIFPPSDEQLKSGTASVVCLLNNFYPREAKVQWKVDNALQSGNSQSVTEQDSKDSTYSLSSTLTLSKADYEKHKVYACEVTHQGLSSPVTKSFNRGEC
modifications: pAMF at K42 and E161 (printed * in the sequence), linked to LP23; pAMF at Y180 and F404 (printed * in the sequence), linked to LP23
B8: Conjugate 32: D04-Y180F404/K42/E161-LP16 (antibody, human IgG1, kappa)
heavy: MEVQLVESGGGLVQPGGSLRLSCAASGFNISDYDIHWVRQAPGKGLEWVGGIDPADGSTDYADSVKGRFTISADTSKNTAYLQMNSLRAEDTAVYYCARDYGVYDYWGQGTLVTVSSASTKGPSVFPLAPSSKSTSGGTAALGCLVKDYFPEPVTVSWNSGALTSGVHTFPAVLQSSGLSLSSVVTVPSSSLGTQTYICNVNHKPSNTKVDKKVEPKSCDKTHTCPPCPAPELLGGPSVFLFPPKPKDTLMISRTPEVTCVVVDVSHEDPEVKFNWYVDGVEVHNAKTKPREEQYNSTYRVVSVLTVLHQDWLNGKEYKCKVSNKALPAPIEKTISKAKGQPREPQVYTLPPSREEMTKNQVSLTCLVKGFYPSDIAVEWESNGQPENNYKTTPPVLDSDGSFLYSKLTVDKSRWQQGNVFSCSVMHEALHNHYTQKSLSLSPGK
light: MDIQMTQSPSSLSASVGDRVTITCRASQDVNTAVAWYQQKPGAPKLLIYSASFLYSGVPSRFSGSRSGTDFTLTISSLQPEDFATYYCQQHYTTPPTFGQGTKVEIKRTVAAPSVFIFPPSDEQLKSGTASVVCLLNNFYPREAKVQWKVDNALQSGNSQSVTEQDSKDSTYSLSSTLTLSKADYEKHKVYACEVTHQGLSSPVTKSFNRGEC
modifications: pAMF at K42 and E161 (printed * in the sequence), linked to LP16; pAMF at Y180 and F404 (printed * in the sequence), linked to LP16

Target: ROR1 antigen expressed on ROR1 positive Ntera-2 cells (UniProt Q01973 30-937)
Test: cell-based or functional assay

Binder | NTERA-2 cell killing EC50 | NTERA-2 cell killing Span (%)
B1 | 0.02 nM | 88%
B2 | 0.373 nM | 73%
B3 | 0.018 nM | 87%
B4 | 0.236 nM | 77%
B5 | 0.222 nM | 72%
B6 | 0.019 nM | 87%
B7 | 0.108 nM | 64%
B8 | 0.023 nM | 86%
